The values below come from patent publication US20250002938A1 (FRANCIS CRICK INSTITUTE, published 2025).

The labels stand for the following.
T1: AAV1(Asp590Cys) virus particle (AAV1)
T1 construct: Assembled particle of VP1, VP2 and VP3, all carrying the mutation; also called AAV1Cys; AAV1 Asp590Cys virions
T1 chain: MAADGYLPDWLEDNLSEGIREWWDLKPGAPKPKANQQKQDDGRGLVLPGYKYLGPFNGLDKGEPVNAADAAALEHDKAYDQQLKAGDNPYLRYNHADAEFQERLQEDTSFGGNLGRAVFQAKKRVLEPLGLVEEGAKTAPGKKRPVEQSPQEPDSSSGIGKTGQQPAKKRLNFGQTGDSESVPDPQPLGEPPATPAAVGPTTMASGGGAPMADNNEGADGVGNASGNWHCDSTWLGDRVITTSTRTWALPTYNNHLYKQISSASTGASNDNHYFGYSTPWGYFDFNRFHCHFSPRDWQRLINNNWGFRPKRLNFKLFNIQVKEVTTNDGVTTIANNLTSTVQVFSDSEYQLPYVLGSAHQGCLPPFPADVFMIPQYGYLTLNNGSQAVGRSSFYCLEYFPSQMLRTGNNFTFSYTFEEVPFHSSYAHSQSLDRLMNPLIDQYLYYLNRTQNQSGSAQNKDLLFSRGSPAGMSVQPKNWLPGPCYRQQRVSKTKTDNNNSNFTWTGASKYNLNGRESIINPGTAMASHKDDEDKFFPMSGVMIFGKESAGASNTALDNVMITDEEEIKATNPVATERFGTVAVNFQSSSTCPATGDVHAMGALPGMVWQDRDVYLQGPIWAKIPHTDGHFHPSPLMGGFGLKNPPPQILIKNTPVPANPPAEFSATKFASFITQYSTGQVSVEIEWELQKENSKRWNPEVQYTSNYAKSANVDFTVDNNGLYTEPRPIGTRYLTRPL

T2: PKD2 domain of AAVR, wild type (Pongo abelii (Sumatran orangutan) …, UniProt Q5RFR6 409-498)
T2 construct: also called PKD2 wild type
T2 sequence: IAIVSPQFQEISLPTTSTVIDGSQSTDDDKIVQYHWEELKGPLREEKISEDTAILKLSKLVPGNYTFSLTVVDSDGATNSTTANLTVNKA

B1: superfolder GFP fused to PKD1(Ser356Cys) (other)
chain: SAGESVQITLPKNEVQLNAYVLQEPPKGETYTYDWQLITHPRDYCGEMEGKHSQILKLSKLTPGLYEFKVIVEGQNAHGEGYVNVTVKPE
notes: also called PKD1^S356C-derived AP; adaptor protein (38.2 kDa); not shown: superfolder GFP
B2: msfGFP fused to PKD2(Ser425Cys) (other)
chain: T2 sequence with S17C
notes: also called monomeric variant of super folder GFP adaptor protein; not shown: monomeric variant of super folder GFP (msfGFP)
B3: sfGFP-PKD2(Ser425Cys) adaptor fusion protein (other)
chain: T2 sequence with S17C
notes: On the virus it forms the AAV1(Asp590Cys)<>sfGFP CAR-V; also called PKD2Cys; sfGFP-PKD2(Ser425Cys) fusion polypeptide; not shown: superfolder GFP (sfGFP)
B4: sfGFP-PKD2 fusion protein (wild type PKD2) (other)
chain: T2 sequence
notes: also called sfGFP-PKD2 adaptor protein; PKD2WT; not shown: superfolder GFP (sfGFP)
B5: PKD2(V480E) mutant (receptor)
chain: T2 sequence with V72E
notes: also called PKD2(V480E) variant of AAVR; Val480Glu mutation
B6: superfolder GFP fused to PKD2(Ser425Cys-Val480Glu) (other)
chain: T2 sequence with S17C, V72E
notes: also called sfGFP-PKD2(Ser425Cys-Val480Glu); not shown: superfolder GFP
B7: AAV1 wildtype capsid (virus particle) (other)
chain: T1 chain with C590D
notes: Assembled virus particle: 60 monomers of VP1, VP2 and VP3 at about 1:1:10; VP2 and VP3 are N-terminally shorter forms of the same entry; also called AAV1WT; AAV1 capsid

Substitutions are numbered along the chain they refer to. Numbers in names are those of the source.

Test [1] deals with T3, AAV5(Gln697Cys) virus particle (AAV5).
T3 construct: Assembled particle of VP1, VP2 and VP3; also called AAV5^Q697C
Briefly: anti-VP1/2/3 immunoblot of a non-reducing gel, coupling at 10 µM adaptor.

The target of test [2] is T1, AAV1(Asp590Cys) virus particle. Kind of test: non-reducing Coomassie SDS-PAGE, covalent coupling of the PKD2(Ser425Cys) fusion with AAV1 D590C.
Test [3] has the same target. Briefly: SDS-PAGE of the mixtures, non-reducing (top, bottom left) and reducing with βME (bottom right); shows disulfide-linked adducts only.
In test [4] the target is T4, AAV2 wildtype virus particle (AAV2, UniProt P03135 1-735).
T4 construct: Assembled particle of VP1, VP2 and VP3; The virus for SPR was commercially sourced; also called AAV2 wt
Kind of test: SPR; AAV2 virus amine-coupled on a CM3 chip, increasing concentrations of the fusion protein. In general terms: In SPR one partner is held on a chip, and binding of the other changes the refractive index at the surface.

For test [5], the target named is B7. Briefly: response-concentration plot on AAV1 capsid; method not named; PKD2(V480E) mutant.
For test [6], the target named is T5, AAV2(Gln589Cys) virus particle (AAV2, UniProt P03135 1-735).
T5 construct: Assembled particle of VP1, VP2 and VP3
Kind of test: anti-VP1/2/3 immunoblot of a non-reducing gel, coupling at 5 µM adaptor. On the technique in general: Immunoblotting shows a protein as a band on a membrane.

Test [7] concerns the target T1, AAV1(Asp590Cys) virus particle. Kind of test: anti-VP1/2/3 immunoblot of a non-reducing gel, coupling at 3 µM adaptor in 1 mM TCEP.
In test [8] the target is B4. Kind of test: SPR; AAV1 virus amine-coupled on a CM3 chip, increasing concentrations of the fusion protein.
Test [9] has as its target T2, PKD2 domain of AAVR, wild type. Briefly: response-concentration plot on AAV1 capsid; method not named; PKD2 wild type.

As to B1, in [1], the binding result is listed as “binds”.
For the molecule B2, the binding result in [2] is “binds”.
Regarding B3, in [3], the binding result is listed as “binds”.
One may read the Kd as the free concentration of one partner at which half of the binding sites on the other are occupied at equilibrium, for simple one-to-one binding. Read a low Kd as tighter binding. In the case of B4, the Kd in test [4] is ~6 µM.
B5 showed a Kd in [5] of 6.13 µM.
B6: the binding result in [6] and in test [7] was “binds” throughout.
Regarding B7, the figures for the Kd in test [8] and in test [9] were ~2 µM and 12.2 µM, respectively.
